The DeepSol protein solubility set

test: soluble on expression in E. coli; label from the status in PepcDB or PDB records

Row | Sequence | soluble on expression in E. coli
1 | MGSSHHHHHHSSGLVPRGSHMYETYHSGWIECITGSMFSGKSEELIRRLRRGIYAKQKVVVFKPAIDDRYHKEKVVSHNGNAIEAINISKASEIMTHDLTNVDVIGIDEVQFFDDEIVSIVEKLSADGHRVIVAGLDMDFRGEPFEPMPKLMAVSEQVTKLQAVCAVCGSSSSRTQRLINGKPAKIDDPIILVGANESYEPRCRAHHIVAPSDNNKEEL | soluble
2 | MSLKYLVIGSNSFTGASMVSYLLDQGADVVGISRSDEPHPAFLPYRWKKADRFRFQKLDLNHDLDAIMQLVTAERFPCIINFAAQSMVGESWANPDHWFMTNVVSTVRLHERLRICDFLERYVHVTTPEVYGNATGTLTEDAVFDPSTPYAVSRAAGDMSLRSYFRAYGFPVLFTRAANVYGPGQRLYRIVPRTILFIKLGRKLQLHGGGTSERSFIHAADVADATRRIACNGKLGDSYHISTDRIVTIRALVEMICAMMRVRFEDQVEIVGERLGKDAAYKLDSSKLRSELGWSDQITLEQGIEQTIAWIDRWFEELKSQPFDYAHKEGHHHHHH | not soluble
3 | MKFGKTIAVVLASSVLLAGCTTDKKEIKAYLKQVDKIKDDEEPIKTVGKKIAELDEKKKKLTEDVNSKDTAVRGKAVKDLIKNADDRLKEFEKEEDAIKKSEQDFKKAKSHVDNIDNDVKRKEVKQLDDVLKEKYKLHSDYAKAYKKAVNSEKTLFKYLNQNDATQQGVNEKSKAIEQNYKKLKEVSDKYTKVLNKVGKEKQDVDQFK | soluble
4 | MGSDKIHHHHHHMSFSGFEQFIGLVANRYGKPGTPHSEEQHSDYEAGTVLLGSETWHIRTARVTPTKPGAFVAFWMRNEQGEICPFDSSEACAGLLIFVQDESNFGVFRFTREQLEQQGITRSTKRPGKRGFRVYPSWSGNLNAQAKKTQAIQTPSFELLQ | not soluble
5 | MTPVQLKNYLEQLVGNQIKTSTMIWGPPGIGKSSIVAQIAEEGKLRFIDLRLSQLAPTDLRGLPVAIPTSKTKPQTGTSAWYPPEFLPKDGAGILFLDELNMAPPAMQGVAQQLILDRRVGSYEVPTDWFIWAAGNRKEDRASVFEMPAPLANRFLHLDVQPDFESFKQYALEQKYHEQVIAFLSFRPGLIHKLDLQRPAWPSPRSWAIANGLHQVNLDVSPAVGEGCAAEFSAFVQLYKDLPDLEAIFRGQGQNIGFPTEPSSGYASTIGLAVRAKDATAGVNAFHWLTDKADSEWVQLFVTDMAGQLRRAGHLGALSIMAKKEPKLKQFMQGYQELLAILEHHHHHH | soluble
6 | MKNIIIIGANGFTGRQILNDLSSKAQYKVTGCSLHPDILPKNGGNYHFITTDIRDEAVVKQLFKDVQPDVVINCSALSVPDYCETHHEEAWLTNVTAVEQLAHLCESYKSRFIHLSTDFVFDGKIDEKSGQLYTEKSLPAPVNYYGFTKWKGEEKVTEICSNYAIARVEIVYGKALPGQHGNIVQLVMNRLNAGQEIRVVSDQWRTPTYVGDVSAGVQHLVENAANGIFHICGEECLTIAEIAFQVADYMKLDRSLVHPATTEEMQEATPRPRFSGMSIAKARTILGYQPRKLKDILMEWKH | not soluble
7 | YICRLPAEEIGFPEFYPRISRSMKSIKRPNLIYPAGKGLAVHIYPDKEDVRNYYIPIEPCLFQKLDSMLEEVEKLLIDVIHDQEINTNDPEEKKKLLVKALEKTCD | not soluble
8 | SAGRGKLIAVIGDEDTVTGFLLGGIGELNKNRHPNFLVVEKDTTINEIEDTFRQFLNRDDIGIILINQYIAEMVRHALDAHQRSIPAVLEIPSKEHPYDAAKDSILRRAKGMFTAEDLR | soluble
9 | MNEKKLVEALKRKEDWAYEVLYREFAPKIGSIAKSFLNTDDVDDVVQDVFLRIFKGIKKFRGDSKLSTWIYRIAVNVCKDYLQKYKKRNEFLTDFQEKDNEEEIYIQPEAKENVLDEVLRSITAERVQKALEKLSPEDRLLIKLRDIDGLSYEEIASVLQKPVGTVKSRLHYARKRLGNLLKEGETVER | not soluble
10 | MKTKSPALSGKLTDTELRTLRIFMAVVHYSGFTPAALELNVSRSAVSIAMADLEKRLSLRLCERGRAGFSLTTEGREVYRSTRQLFSALDQFRIQINAIHFNLKGELNIGITDNLVTMPQMRITSALRELNRLGPDVQINIQMIPPNEIISGVLDGQLHTGVIPVQKHYEGLEYLLLYEERSSLYCGQEHELFCRHDSELSPSMLKQYNGVLPAYDQTSEIKALHHELQLSASATDREGVAFLILTGRYIGYLPDHYAHRWVKEGVMRAILPANMSYLTPFATITKKGAPSNLVLENYLEQLKLASTTAGG | not soluble
11 | MGSDKIHHHHHHMGGAALPDNGWPADRIDTESAHSARIYDYIIGGKDYYPADKEAGDAMSREWPALPVHMRANRDWMNRAVAHLAKEAGIRQFLDIGTGIPTSPNLHEIAQSVAPESRVVYVDNDPIVLTLSQGLLASTPEGRTAYVEADMLDPASILDAPELRDTLDLTRPVALTVIAIVHFVLDEDDAVGIVRRLLEPLPSGSYLAMSIGTAEFAPQEVGRVAREYAARNMPMRLRTHAEAEEFFEGLELVEPGIVQVHKWHPDAATADGIRDEDIAMYGAVARKP | not soluble
12 | MSLGQVGVGRVLQRYIILKGRNSEHLFVAAESLIAIDRLPAAIITRLTQTNDPLGEVMAASHIETFKEEAKVWVGDLPGWLALHGYQNSRKRAVARRYRVISGGQPIMVVTEHFLRSVFRDEGHHHHHH | not soluble
13 | MPVGRREQIVDCRSVMGLGEGGGLAQRGTFAEALKNDVVVVAMSPGRRHITKPVCEITYGIREAGIQTSVLVLNAGSGIPHDAPRGALGSTFGIKPEEAEQINRHKLCVVHFGNVISHIVYKAGLLLKYVEIPTIIVCQAPVDMEDLAKYGIKTRDVMPLEPKTKGTVVDIVTGVIRGESCPQTKIDEVIRKIKLHLNLNLEHHHHHH | soluble
14 | GPGSMFVEDKGLISEANLRALHVGTLKLHLFLQEWILPVSFSEKYGYKKEVLEEIIERYGSGSAAEARWTFEQLLGECEVPGQISWLEEHISEDIPYFYIADLFDSWCNLHRNLFVCSADAHETAKRSDDRFESELLCKGVIEKAISGVLPYDTAVRALCILAIGCRTNTQFMLKTIKPDFIINRYKLYTDDLAQPIDGNTDVTPLAEVNAATIGLLNALNTELQEQEKLKLWKSSTARKLPLLMQLNATPWCDSVDSLRRGLKGITSNNAATLLEEATQYFRCSELSK | not soluble
15 | MGLFNNFKFKYTRAQLEIFRFSFCLLAPVAVMYYIGTDTDKKLNVPGFWPDPATLNQIPKEPYEIKAELARMKKERLEKRLRLEKKIQEEFGLDLEEEKEKIKRDLALKKG | soluble
16 | MGHHHHHHSHDGQLFCKKDYWARYGESCHGCSEQITKGLVMVAGELKYHPECFICLTCGTFIGDGDTYTLVEHSKLYCGHCYYQTVVTPVIEQILPDSPGSHLPHTVTLVSIPASSHGKRGLSVSIDPPHGPPGCGTEHSHTVRVQGVDPGCMSPDVKNSIHVGDRILEINGTPIRNVPLDEIDLLIQETSRLLQLTLEHDP | not soluble
17 | MAHHHHHHMEEGAPTPAAPVGEDQEVAAAPATEEPASIMQVENTNFNWADDDIQFQIRQPQYAAEYPVSVLENLARNVTFKVPEDQNTMTSAIEALARERQAFEQMKRNHEDAMKSREVELNAQEATLQARERQLHANTETLAAERQQLILQQSQFRAQQAQAQAQSQAQAQTQSQPRTSSQTQSPAAQVSPSPAQAAQPAHAPQLQHQMPPPHQQPQPRSGNVYMGGGYGAQEWQPDQRTWGNEGAMGAPGFDMYQGAYPGSYAQRNYHMAGGHRGQMRSGNLPQQQFPGNRMQPMMPPPQQYSRSMAPLGAARQQQMDMNFGGRSQQSYNPAPNTGYPQRSAQW | soluble
18 | MGSDKIHHHHHHMEHLLEVNNLSVSFKVEEGEVQAVRNVSFNLKKGETLAIVGESGCGKSVLCKSLMRILPYNGYIKNGEVLLKSSDLVKKSEKEMEDIRGKNISMIFQDPMTSLNPTISIGKQIAEAVIIHQGISKSEAKKRAIELIELVGIDNPEKRFKQFPHHFSGGMRQRIVIAIALACNPDVLIADEPTTALDVTIQAQIIDLIKDLQHKIGLSIIFITHDLGVVATIADRIAVMYAGKIVEIGTVEDIFYDPRHPYTWGLLGSLPTLDSQDDYLYNIPGMPPNLLNPPKGDAFAIRNKNALKIDYEKEPPMFKINDTHSAATWLLHPDAPEVDVPVRVNCGRVISNE | not soluble
19 | KRMYNREKLRKLFDKEETPEVTGLKDNQERFFTYSIRAAHMNINTKSNIKVLKNGEETFPDIFKAMRKAESYIHIEYYMFKSDMLGRGMMDIMMEKARQGVEVRFLYDAAGSMKLARRDIMRMKQAGVDIVPFSPLKYGFFNQKLNFRNHRKIVIIDGKTGFVGGLNVGKEYISRDPYIGFWRDTHLRLEGEIVQTLHAIFMLDWEYVSNEVLIDQEEYNTPVPVEGGGIYQIVATGPDMKESMSDLYYEMISSAQKSIWIATPYFVPNESIRTALKAAATKGVEVRVMVPEKNDSFLTQYASRSYFPELLLEGIEVYSYQKGFMHQKVMIIDGDLASVGTANMDMRSFQLNFEVNVFFTDAEAIRTLEAHFEEDMQESEKLSPVGFYKRGVADR | not soluble
20 | MSLTEKVSVFALGGAGEIGKNMYVVELDEDIFVIDAGLMFPGDEMLGIDKVIPDISYLKENKERIQGIFITHGHEDHIGALSYVLRDLKVPVYGTRLTLGLIEIKLKEAGLLKKADLRPIDAKTKLTVAGHFITFFRVNHSIPDAVGVCIQTSQGAIVHTGDFKFDYTPVDGKQADFGKIAAIGQRGVLCLLSDSTNAERPGMSGSESTVGSELNDVIYEAPGRVIVASFASNVHRLQQVFAAAEANNEGHHHHHH | soluble
21 | MSVLIPLVTVDGRDSVLLTKRSIHLRSHRGEVCFPGGRMDPGETTTETALRETFEEIGVNAESVEIWGHLKSVIRRQADFNVTPIVGYISDERVLENLVVNSDEVQAVFTIPIDELIKKAGLTKFQSKRMKYTLPSFDSTEFKVHHNAPNEYLHSTQRVWGLSGVMLHQALTLLNPDVYKHDLIVKFF | not soluble
22 | AATTVNGGTVHFKGEVVNAACAVDAGSVDQTVQLGQVRTASLAQEGATSSAVGFNIQLNDCDTNVASKAAVAFLGTAIDAGHTNVLALQSSAAGSATNVGVQILDRTGAALTLDGATFSSETTLNNGTNTIPFQARYFATGAATPGAANADATFKVQYQGGGGGGAATTVNGGTVHFKGEVVNA | soluble
23 | MAHHHHHHMFYVDACSQNYRMPNSAPVFSQGFPQPNRAPSLVSPNDVQNCTNDGLVNPHQAPLFTVSQQGSVVAASVLPRTVLWTANGMYGVTQMREGPEEGATRFVPSKSPDGTPVSAMQSMFLPPMQQQQQQQQQASNCPLLYILTTVAVPQTYPQTSLQEQKSQHVTPVTHQIISMKGPSVAPSQSIGINTLNPSCITNNSDAMQTCGSGSKVNVNVVCRHFIKSCCNRRKCRFLHTLNEAPLANI | not soluble
24 | MGSDKIHHHHHHMFRRHGIIAFSSNYELYADMSNRVMTTLEELSPRCEIYSIDEAFCDLTGVRNCRDLTDFGREIRETVLRRTHLTIGVGIAQTKTLAKLANHAAKQWQRQTGGVVDLSNLERQRKLMALLPVDEVWGVGRRISKKLEAMGIKTVLQLADTDIRFIRKHFNVVLERTVRELRGEPCLGLEEFAPVKQEIVCSRSFGGRITEYHEMRQAICSYASRAAEKLRGEHQYCRFISAFVKTSPFALNEPYYGNSASVKLLTPTQDSRDIITAATKCLDAIWRDGHRYQKAGVMLGDFYSQGVAQLNLFDDNAPRKGSEKLMEVLDHLNAKGGRGTLYFAGQGIQTAWQMKREMLSPRYTTRFCDLLKVR | not soluble
25 | MKIKSIRKAVLLLALLTSTSFAAGKNVNVEFRKGHSSAQYSGEIKGYDYDTYTFYAKKGQKVHVSISNEGADTYLFGPGIDDSVDLSRYSPELDSHGQYSLPASGKYELRVLQTRNDARKNKTKKYNVDIQIK | soluble
